Here are results for one protein from publication PMC3581732 (Molecular microbiology, 2013).

By stoichiometry N is commonly meant a count of units in the complex or per binding partner.

This data set concerns the molecule itself. Kind of data set: cross-linking.

B1: TolC Y362F/R367E (YFRE^His), leaky/open mutant with a C-terminal 6His-tag (natural protein)
chain: ENLMQVYQQARLSNPELRKSAADRDAAFEKINEARSPLLPQLGLGADYTYSNGYRDANGINSNATSASLQLTQSIFDMSKWRALTLQEKAAGIQDVTYQTDQQTLILNTATAYFNVLNAIDVLSYTQAQKEAIYRQLDQTTQRFNVGLVAITDVQNARAQYDTVLANEVTARNNLDNAVEQLRQITGNYYPELAALNVENFKTDKPQPVNALLKEAEKRNLSLLQARLSQDLAREQIRQAQDGHLPTLDLTASTGISDTSYSGSKTRGAAGTQYDDSNMGQNKVGLSFSLPIYQGGMVNSQVKQAQYNFVGASEQLESAHRSVVQTVRSSFNNINASISSINAYKQAVVSAQSSLDAMEAGFSVGTETIVDVLDATTTLYNAKQELANARYNYLINQLNIKSALGTLNEQDLLALNNALSKPVSTNPENVAPQTPEQNAIADGYAPDSPAPVVQQTSARTTTSNGHNPFRN
Consider B1, for which the “stoichiometry N” value came out at 3.
